For two molecules, Kd results are on record in patent US20090130105A1.

The target of the test is All other mutant IGF-1R constructs. Put plainly: SPR, Fab over captured mutant hIGF-1R-Fc; all of SD001-SD019 other than SD015.

B1: M13-C06 Fab (Fab, V domains shown)
VH: EVQLLESGGGLVQPGGSLRLSCAASGFTFSIYRMQWVRQAPGKGLEWVSGISPSGGTTWYADSVKGRFTISRDNSKNTLYLQMNSLRAEDTAVYYCARWSGGSGYAFDIWGQGTMVTVSS
VL: DIQMTQSPLSLSASVGDRVTITCQASRDIRNYLNWYQQKPGKAPKLLIYDASSLQTGVPSRFGGSGSGTDFSFTIGSLQPEDIATYYCQQFDSLPHTFGQGTKLEIK
B1 registered a Kd of 1 nM.

B2: M14-C03 Fab (Fab, V domains shown)
VH: EVQLLESGGGLVQPGGSLRLSCAASGFTFSKYMMSWVRQAPGKGLEWVSYISPSGGLTWYADSVKGRFTISRDNSKNTLYLQMNSLRAEDTAVYYCARDGARGYGMDVWGQGTTVTVSS
VL: DIQMTQSPATLSLSPGERATLSCRASQSVSSYLAWYQQKPGQAPRLLIYDASNRATGIPARFSGSGSGTDFTLTISSLEPEDFAVYYCQQRSNWPPEVTFGPGTKVDIK
Turning to B2, the Kd stood at 5 nM.
